What was measured:
Jak-Stat pathway = test: Tyrosine phosphorylation of Jak, Stat and Irs family members in TS1 cells expressing human IL-9 receptor variants, after IL-9 stimulation; type: cell-based; conditions: TS1 cells expressing the receptor form, starved 6 hours, treated 5 minutes with human or murine IL-9 (100 ng/ml), FIG. 15
Procedure: (§1) To determine growth response of TS1 cells expressing various forms of human IL-9 receptor, cells were washed with PBS and resuspended in D-MEM, 10% fetal bovine serum. 10^3 cells per well were seeded in triplicate in 96-well microplates and, where appropriate, recombinant human IL-9 or murine IL-9 (R&D Systems, Minneapolis, Minn.) was added at a final concentration of 5 ng/ml. Cell proliferation was evaluated after 7 days using an acid phosphatase assay. Briefly, 50 μl of a buffer containing 0.1 M sodium acetate (pH 5.5), 0.1% Triton X-100 and 10 mM p-nitrophenyl phosphate (Sigma 104 phosphatase substrate) was added per well. The plate was incubated for 1-½ hours at room temperature, the reaction stopped with 10 μl/well of 1N sodium hydroxide and the absorbance was read on a Dynatech Model MR600 at 410 nm. To analyze tyrosine-phosphorylation of proteins of the signal transduction cascade upon cytokine stimulation, TS1 cells expressing various forms of human IL-9 receptor were washed with PBS, resuspended in D-MEM, 0.5% bovine serum albumin, and incubated for 6 hours at 37° C. Successively, 20×10^6 cells were treated for 5 minutes with either human IL-9 or murine IL-9 (100 ng/ml) and immediately washed in cold PBS. Cells were lysed in RIPA buffer as described in Example 11.
Typically, 20-50×10^6cells were lysed in 1 ml of RIPA buffer (PBS containing 1% NP40, 0.5% sodium deoxycholate, 0.1% SDS, 1 mM PMSF, 50 mM sodium fluoride, […] sodium orthovanadate, and 1× “Complete” protease inhibitors mixture, Cat. No. 1697498 Boehringer Mannheim) and incubated for 45 minutes on ice. Lysates were centrifuged for 20 minutes in an Eppendorf microcentrifuge and the supernatant recovered and transferred to a fresh tube. For immunoprecipitations, 1-5 μg of the antibody were added to the lysate and incubated overnight at 4° C. […] Proteins were transferred onto Immobilion-P membrane (Millipore) and detected using a horseradish peroxidase-conjugated secondary antibody followed by a chemiluminescence detection assay (Pierce). […]

TS1 cells = test: Proliferation of TS1 cells expressing different forms of human IL-9 receptor (acid phosphatase assay); type: cell-based, murine; conditions: TS1 cells expressing the receptor form, IL-9 5 ng/ml, 7 days, FIG. 16
Procedure: as §1

[1] = listed as splice variant of the IL-9R

Molecule | activation (tyrosine phosphorylation) of proteins of the Jak-Stat pathway (Jak-Stat pathway) | activation (tyrosine phosphorylation) of proteins of the Jak-Stat pathway (Jak-Stat pathway; [1]) | cellular proliferation upon IL-9 stimulation (TS1 cells) | cellular proliferation upon IL-9 stimulation (TS1 cells; [1])
IL-9R: wild type human IL-9 receptor, Arg allele at codon 344 with 8 Ser/4 Asn repeats (SEQ ID NO 1) (protein) SVTGEGQGPRSRTFTCLTNNILRIDCHWSAPELGQGSSPWLLFTSNQAPGGTHKCILRGSECTVVLPPEAVLVPSDNFTITFHHCMSGREQVSLVDPEYLPRRHVKLDPPSDLQSNISSGHCILTWSISPALEPMTTLLSYELAFKKQEEAWEQAQHRDHIVGVTWLILEAFELDPGFIHEARLRVQMATLEDDVVEEERYTGQWSEWSQPVCFQAPQRQGPLIPPWGWPGNTLVAVSIFLLLTGPTYLLFKLSPRVKRIFYQNVPSPAMFFQPLYSVHNGNFQTWMGAHRAGVLLSQDCAGTPQGALEPCVQEATALLTCGPARPWKSVALEEEQEGPGTRLPGNLSSEDVLPAGCTEWRVQTLAYLPQEDWAPTSLTRPAPPDSEGSRSSSSSSSSSNNNNYCALGCYGGWHLSALPGNTQSSGPIPALACGLSCDHQGLETQQGVAWVLAGHCQRPGLHEDLQGMLLPSVLSKARSWTF | all of the proteins of the pathway including Jak3 and Irs1 were phophoralated | – | – | –
ΔQ173 variant: splice variant of the IL-9R wherein the glutamine residue at position 173 of the precursor protein has been deleted (SEQ ID NO 3) (protein) SVTGEGQGPRSRTFTCLTNNILRIDCHWSAPELGQGSSPWLLFTSNQAPGGTHKCILRGSECTVVLPPEAVLVPSDNFTITFHHCMSGREQVSLVDPEYLPRRHVKLDPPSDLQSNISSGHCILTWSISPALEPMTTLLSYELAFKKQEEAWEAQHRDHIVGVTWLILEAFELDPGFIHEARLRVQMATLEDDVVEEERYTGQWSEWSQPVCFQAPQRQGPLIPPWGWPGNTLVAVSIFLLLTGPTYLLFKLSPRVKRIFYQNVPSPAMFFQPLYSVHNGNFQTWMGAHRAGVLLSQDCAGTPQGALEPCVQEATALLTCGPARPWKSVALEEEQEGPGTRLPGNLSSEDVLPAGCTEWRVQTLAYLPQEDWAPTSLTRPAPPDSEGSRSSSSSSSSSNNNNYCALGCYGGWHLSALPGNTQSSGPIPALACGLSCDHQGLETQQGVAWVLAGHCQRPGLHEDLQGMLLPSVLSKARSWTF | could not activate any proteins in the Jak-Stat pathway | not able to transcribe a signal through the Jak-Stat pathway | could not support cellular proliferation upon IL-9 stimulation | unable to induce cellular proliferation upon stimulation with IL-9

— patent publication US6602850B1, “Method of treating asthma using soluble IL-9 receptor variants” (Genaera Corporation, priority 1996, dated 2003)
